Reference: publication PMC3669356

Tests used:
[1] = target: Schistosoma japonicum GST (GST-Sj), purified recombinant (Schistosoma japonicum) [GST: P08515]; assay: SPR
[2] = target: rat GSTM1, purified recombinant (rat); assay: SPR; BIAcore; GSTM1 or GSTP1 immobilised by amine coupling on CM5 chips; AMPK 221WT injected (10 nM, or a concentration series) at 30 µl/min; 10 mM HEPES pH 7.4, 100 mM NaCl, 50 μM EDTA, 0.005% Surfactant P20; Langmuir 1:1 fit

Substance	equilibrium response [1]	Kd [2]	koff [2]	kon [2]
AMPK α2T172Dβ2γ1 mutant (221TD) (from UniProt Q09137 1-552; Q9QZH4 1-271; P80385 1-330) (complex)	121 RU			
AMPK α2β2γ1 (221WT) (from UniProt Q09137 1-552; Q9QZH4 1-271; P80385 1-330) (complex)	203 RU	5 nM	0.0016 s⁻¹	310000 M⁻¹ s⁻¹
